Experimental data from patent publication US20220204640A1 (Genentech, published 2022).
Numbering of substitutions follows the chain as printed.

Assays:
[1] = molecular target: T1, TAT211 polypeptide on the surface of cells (human, UniProt O95436 1-690); assay: Scatchard analysis on cells, IgG
T1 construct: Expressed endogenously (OVCAR-3, OVCAR4, Igrov1, P828, P701sc20) or recombinantly (293/TAT211) on the cell surface
T1 sequence: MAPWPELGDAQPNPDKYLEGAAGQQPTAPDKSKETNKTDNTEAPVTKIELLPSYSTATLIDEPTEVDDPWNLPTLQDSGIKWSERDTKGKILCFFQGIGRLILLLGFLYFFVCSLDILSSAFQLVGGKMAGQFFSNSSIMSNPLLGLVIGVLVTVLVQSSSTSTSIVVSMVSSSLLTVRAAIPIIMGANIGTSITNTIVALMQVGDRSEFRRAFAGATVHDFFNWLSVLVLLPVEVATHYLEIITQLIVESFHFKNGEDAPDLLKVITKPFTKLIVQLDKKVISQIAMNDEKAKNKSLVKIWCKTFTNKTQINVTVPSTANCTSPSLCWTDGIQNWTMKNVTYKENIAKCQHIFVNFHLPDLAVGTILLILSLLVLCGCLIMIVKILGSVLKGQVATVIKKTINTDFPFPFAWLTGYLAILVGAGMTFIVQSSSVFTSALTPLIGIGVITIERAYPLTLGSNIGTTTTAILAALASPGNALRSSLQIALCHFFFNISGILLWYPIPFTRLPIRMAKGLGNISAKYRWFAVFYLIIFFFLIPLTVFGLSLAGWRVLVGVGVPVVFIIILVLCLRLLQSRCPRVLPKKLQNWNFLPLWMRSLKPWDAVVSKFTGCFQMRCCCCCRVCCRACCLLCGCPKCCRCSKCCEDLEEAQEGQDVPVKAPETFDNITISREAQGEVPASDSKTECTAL

[2] = molecular target: T2, CHO derived TAT211 extracellular domain (glycosylated, immunoadhesin / Fc fusion) (human, UniProt O95436 234-362, glycosylated (CHO)); assay: surface plasmon resonance (Biacore), TAT211 extracellular domain immobilized
T2 construct: not shown: Fc part of the immunoadhesin
T2 sequence: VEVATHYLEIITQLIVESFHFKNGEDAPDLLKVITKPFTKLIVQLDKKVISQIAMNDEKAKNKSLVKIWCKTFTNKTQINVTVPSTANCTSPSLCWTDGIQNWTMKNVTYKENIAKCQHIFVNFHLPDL

[3] = molecular target: T2, CHO derived TAT211 extracellular domain …; assay: surface plasmon resonance for the Fab, compared with mu10H1
Experimental: TAT211 extracellular domain (glycosylated) was immobilized (approximately 100-400 RU, in 10 mM Sodium Acetate pH 4.8 on a CM5 sensor chip) and the 10H1 antibody variant served as the analyte (injected at a flow rate of 30 μL/min, using a 2-fold serial dilution of 4 to 1000 nM in PBST). Each sample was analyzed with 4-minute association and 10-minute disassociation. After each injection the chip was regenerated using 10 mM Glycine pH 1.7.

[4] = molecular target: T1, TAT211 polypeptide on the surface of …; assay: Scatchard analysis on OVCAR4 cells expressing TAT211; OVCAR4 cells
[5] = molecular target: T1, TAT211 polypeptide on the surface of …; assay: Scatchard analysis on P701sc20 cells expressing TAT211; P701sc20 cells
[6] = molecular target: T1, TAT211 polypeptide on the surface of …; assay: Scatchard analysis on Igrov1 cells expressing TAT211; Igrov1 cells
[7] = molecular target: T1, TAT211 polypeptide on the surface of …; assay: Scatchard analysis on P828 cells expressing TAT211; P828 cells

B1: humanized anti-TAT211 antibody 10H1.11.4B (IgG) (antibody, V domains shown)
VH: EVQLVESGGGLVQPGGSLRLSCAASGFSFSDFAMSWVRQAPGKGLEWVATIGRVAFHTYYPDSMKGRFTISRDNSKNTLYLQMNSLRAEDTAVYYCARHRGFDVGHFDFWGQGTLVTVSS
VL: DIQMTQSPSSLSASVGDRVTITCRSSETLVHSSGNTYLEWYQQKPGKAPKLLIYRVSNRFSGVPSRFSGSGSGTDFTLTISSLQPEDFATYYCFQGSFNPLTFGQGTKVEIKR
binding result [1]: binds

B2: 10H1-graft as a Fab (Fab, V domains shown)
VH: B1 VH with F56S, A97V
VL: B1 VL with S33N, F98H
notes: Fab expressed in E. coli from the phage display vector; also called 10H1 anti-TAT211 grafted humanized antibody
Kd [2]: 74 nM
fold loss of affinity relative to the mu10H1 hybridoma antibody [3]: ~2 fold

B3: murine monoclonal antibody 10H1 (antibody, V domains shown)
VH: EVMLVESGGGLVRPGGSLKVSCAASGFSFSDFAMSWVRRTPDKRLEWVATIGRVASHTYYPDSMKGRFTISRDNAKNTLYLQMNSLRSDDTAIYYCVRHRGFDVGHFDFWGQGTLLTVSA
VL: DILMTQTPLSLPVSLGDQASISCRSSETLVHSNGNTYLEWYLQKLGQPPKLLIYRVSNRFSGVPDRFSGSGSGTDFTLKISRLEAEDLGVYYCFQGSHNPLTFGAGTKVEIKR
notes: Murine hybridoma IgG; also called mu10H1; murine 10H1
Kd [4]: 37 nM
Kd [5]: 59 nM
Kd [6]: 61 nM
Kd [7]: 36 nM
